Data: patent WO2012092539A2 (dated 2012)

Molecular target: DLL4 protein (R&D Systems) (Homo sapiens (Human), UniProt Q9NR61 27-524)
Assay: cell-based or functional assay

Chain of DLL4 protein (R&D Systems) (Q9NR61 27-524 limits assumed): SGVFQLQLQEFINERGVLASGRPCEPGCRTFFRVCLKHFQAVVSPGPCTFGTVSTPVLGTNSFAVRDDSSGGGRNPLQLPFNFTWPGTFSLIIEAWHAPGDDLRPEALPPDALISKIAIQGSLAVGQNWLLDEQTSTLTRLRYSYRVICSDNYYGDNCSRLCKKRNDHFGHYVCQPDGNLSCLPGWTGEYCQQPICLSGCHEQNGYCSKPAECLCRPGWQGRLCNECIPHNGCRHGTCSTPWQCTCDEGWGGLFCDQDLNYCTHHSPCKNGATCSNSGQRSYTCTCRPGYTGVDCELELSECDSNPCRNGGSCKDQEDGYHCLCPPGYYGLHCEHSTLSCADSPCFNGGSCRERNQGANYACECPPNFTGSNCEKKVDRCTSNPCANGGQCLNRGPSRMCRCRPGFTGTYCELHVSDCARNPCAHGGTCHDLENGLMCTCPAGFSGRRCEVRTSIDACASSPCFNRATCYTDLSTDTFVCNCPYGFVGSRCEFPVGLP

Row | Binder | EC50, HUVEC proliferation on DLL4-coated wells (CellTiter Glo, day 3) | EC50, HES1 luciferase reporter in HELA cells on DLL4-coated wells
1 | 12.3 1C1 (antibody, V domains shown) VH: DVQLQESGPDLVKPSQSLSLTCTVTDHSITSGYSWHWIRQFPGNKLEWMAYIHYSGYTHYNPSLKSRISITRDTSKNQFFLHLNSVTTEDSATFYCAGSDYSANEGAMAYWGQGTSATVSS VL: DIVLTQSPASLAVSLGQRATISCRASESVDSFGNSFMHWYQQKAGQPPKLLIYRTSNLQSGIPARFSGSGSRTDFTLTINPVEADDVATYYCQQSNEDPWTFGGGTKLEIKR | 3.9 nM | –
2 | BA1 (antibody, V domains shown) VH: QVQLVQSGAEVKKPGASVKISCKASGYSFTAYYIHWVKQAPGQGLEWIGYISSYNGATNYNQKFKGRVTFTTDTSTSTAYMELRSLRSDDTAVYYCARDYDYDVGMDYWGQGTLVTVSS VL: DIVMTQSPDSLAVSLGERATISCRASESVDNYGISFMKWFQQKPGQPPKLLIYAASNQGSGVPDRFSGSGSGTDFTLTISSLQAEDVAVYYCQQSKEVPWTFGGGTKVEIKR | 60 nM | –
3 | BA2 (antibody, V domains shown) VH: EVQLVESGGGLVQPGGSLRLSCAASGFTFTDNWISWVRQAPGKGLEWVGYISPNSGFTYYADSVKGRFTISADTSKNTAYLQMNSLRAEDTAVYYCARDNFGGYFDYWGQGTLVTVSS VL: DIQMTQSPSSLSASVGDRVTITCRASQDVSTAVAWYQQKPGKAPKLLIYSASFLYSGVPSRFSGSGSGTDFTLTISSLQPEDFATYYCQQSYTGTVTFGQGTKVEIKR | 45 nM | –
4 | 12.55 (antibody, human IgG2, V domains shown) VH: EVQLVETGGGLVQPGGSLRLSCAASGFTFSDYAMSWVRQTPGKGLEWVSTISGSGGDTFYADSVKGRFTISRDNSKNTLYLQVNSLRAEDTAVYYCAKDKNRGAYADAFDIWGQGTMVTVSS VL: QAVLTQPASLSASPGASASLTCTLRSDINVATYRIYWYKQKPGSPPQYLLTYKSDSDKQQGSGVPSRFSGSKDSSANAGILLISGLQSDDEADYHCMVWHKSAPIFGGGTKVTVLG | – | 21.9 nM
